From paper PMC1308866, “Inhibition of HIV derived lentiviral production by TAR RNA binding domain of TAT protein” come the findings set out here.

What all share (assay): EMSA; 0.25 nmol RNA in 10 ul; peptide:RNA molar ratio 0-1
Conditions in all cases: hairpin
Background: Mobility shift assays separate free from complexed probe on a gel.

One data set concerns the target T1, Con-P2.
T1 chain: ARPLEHGSDKAT

In the next data set the target is T2, Tat-P (HIV, UniProt P69698).
T2 chain: YGRKKRRQRRR

The next data set has as its target T3, Con-P1.
T3 chain: RRQRRTSKLMKR

On to GCCAGAUCUGAGCCUGGGAGCUCUCUGGC (structured_RNA) [TAR RNA 29mer], for which the binding result in the data set with Con-P2 is on record as “no binding”; with Tat-P, “binds”; in the data set with Con-P1, “no binding”.
